Results from US5541109.
Ends that are not written are not given here.

What was measured:
[1] = target: ^32 P-labeled GST/PKA/Src SH3 fusion protein (PKA site phosphorylated) (Schistosoma japonicum (Blood fluke)) [GST: P08515]; test: peptide on AminoLink agarose, 32P-labelled fusion, counting
[2] = target: ^32 P-labeled GST/PKA fusion protein (Schistosoma japonicum (Blood fluke)) [GST: P08515]; test: peptide on AminoLink resin, precipitation of 32P-labelled control fusion, counting
[3] = target: radiolabeled GST/PKA/rasGAP SH3 (Schistosoma japonicum (Blood fluke)) [GST: P08515]; test: peptide on AminoLink agarose, 32P-labelled fusion, counting

Binder TPAPPPLPPRNV (also: covalently coupled to AminoLink agarose) [peptide pL35] has a percent of CPM bound to beads/CPM applied to beads [1] of 90%.

KPPTPPPEPET (not fully specified) [pSV40, proline-rich peptide from SV40 T antigen] was tested, and the percent of CPM bound to beads/CPM applied to beads [1] was less than 1%.

In the case of RPLPSPP (not fully specified) [peptide pL14-1-7-mer], the fold lower binding than GST/PKA/Src SH3 [2] is reported as 100 fold.

With LALARPLPVPPWRQI (not fully specified) [fuse5B 4.3-15 (15 mer)] the fold lower binding than GST/PKA/Src SH3 [2] was 100 fold.

With QSRPLPSPPKFT (not fully specified) [peptide pL14-1] the percent of CPM bound to beads/CPM applied to beads [1] was 70% and the fold lower binding than GST/PKA/Src SH3 [2] was 100 fold.

APPAATPPPPRLFRPPA (also: covalently coupled to AminoLink agarose) [peptide pL17-2] showed a percent of CPM bound to beads/CPM applied to beads [3] of 10%.

For RPLPVPP (not fully specified) [fuse5B 4.3-7 (7 mer)], the fold lower binding than GST/PKA/Src SH3 [2] was 100 fold.

Binder LARPLPVPPWRQ (not fully specified; printed as Leu Ala Arg Pro Leu Pro Val Pro Pro Trp Arg Gln) [fuse5B 4.3-12 (12 mer)] has a fold lower binding than GST/PKA/Src SH3 [2] of 100 fold.
